According to publication PMC5416870, “Lee Hyunah 1 2”:

Biological target: SOX (alkaline exonuclease) (Kaposi's sarcoma-associated herpesvirus …, UniProt P88925 1-486)
Experiment: fluorescence polarization anisotropy; FPA with 3'FAM oligonucleotides, single site binding fit (GraphPad PRISM6); buffer, pH and temperature as in cited Bagneris et al., not in material
Conditions: protein: recombinant

B1: dsUN51 (dsRNA)
RNA 1: GGCCAUCCUGUUUUUUUCCCUUUUUUUUUUUCUUUUUUUUUUUUUUUUUUU
RNA 2: AAAAAAAAAAAAAAAAAAAAAAGAAAAAAAAAAAGGGAAAAAAACUGGAUGGCC
Kd (label: 3'FAM (strand 1), duplex, as printed has one U-U mismatch and second strand about 3 nt longer (5' overhang)): ~73 µM

B2: K2-31 (structured_RNA)
RNA: GAUCUGAGCCAUUGAAGCAAGCUUCCAGAUC
Kd (label: 3'FAM, hairpin): 49 µM

B3: GFP51 (structured_RNA)
RNA: UACGGCAAGCUGACCCUGAAGUUCAUCUGCACCACCGGCAAGCUGCCCGUG
Kd (label: 3'FAM, stem loop with UGAAG motif): 5 µM

B4: HBB58 (structured_RNA)
RNA: AGGUGAAGGCUCAUGGCAAGAAAGUGCUCGGUGCCUUUAGUGAUGGCCUGGCUCACCU
Kd (label: 3'FAM, bulge): 42 µM
